Laboratory results from the supplement of paper PMC10724198.
± gives the standard deviation of the averaged measurements.

Columns and labels:
Saccharomyces cerevisiae [1] = assay: protein stability index of tFT-peptide fusion (C-terminal peptide) (PSI (0-1 scale)); higher = more stable (slower turnover)
Experimental: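 MPS profiling in S. cerevisiae of the tFT-X12 degron library: putative degron peptides plus stable controls, 12 aa, fused to the C-terminus of a sfGFP-mCherry timer. Cells are FACS-sorted into 8 mCherry/sfGFP bins and deep-sequenced. PSI runs from 0 (unstable) to 1 (stable). Backgrounds are wild type, das1Δ and doa10Δ at 30 °C, and wild type, das1Δ, cdc34-1 and cdc53-1 at 37 °C; 2-3 technical replicates each.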

Saccharomyces cerevisiae [2] = assay: as above; details: genetic background: wild type; temperature: 30 C
[3] = genetic background: cdc34-1, temperature: 37 C
[4] = genetic background: cdc53-1, temperature: 37 C
[5] = genetic background: das1 deletion, temperature: 30 C
[6] = genetic background: das1 deletion, temperature: 37 C
[7] = genetic background: doa10 deletion, temperature: 30 C
[8] = genetic background: wild type, temperature: 30 C
[9] = genetic background: wild type, temperature: 37 C
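Note: PSI is a weighted mean of sequencing reads over stability bins, variants kept only with over 10 reads, mCherry proximal and sfGFP distal, peptide attached via GGGS linker.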

Sequence | protein stability index (Saccharomyces cerevisiae [1]; [3]) | protein stability index (Saccharomyces cerevisiae [1]; [4]) | protein stability index (Saccharomyces cerevisiae [1]; [5]) | protein stability index (Saccharomyces cerevisiae [1]; [6]) | protein stability index (Saccharomyces cerevisiae [1]; [7]) | protein stability index (Saccharomyces cerevisiae [1]; [8]) | protein stability index (Saccharomyces cerevisiae [1]; [9]) | protein stability index (Saccharomyces cerevisiae [2])
RNWVVDGWRRFP | 0.656 ± 0.03 | 0.7425 ± 0.0034 | 0.684 ± 0.019 | 0.73543 ± 0.00011 | 0.17 ± 0.0075 | 0.192 ± 0.039 | 0.525 ± 0.031 | 0.282 ± 0.069
LCARVCITFNIV | 0.517 ± 0.033 | 0.578 ± 0.054 | 0.458 ± 0.013 | 0.4975 ± 0.0038 | 0.4011 ± 0.004 | 0.438 ± 0.035 | 0.481 ± 0.014 | 0.457 ± 0.016
LFVFVLAGFCCV | 0.352 ± 0.0073 | 0.436 ± 0.017 | 0.32 ± 0.025 | 0.485 ± 0.011 | 0.287 ± 0.0059 | 0.308 ± 0.039 | 0.432 ± 0.041 | 0.381 ± 0.0073
PPLPPVCPSPSL | 0.665 ± 0.031 | 0.74 ± 0.027 | 0.658 ± 0.0035 | 0.7274 ± 0.0068 | 0.667 ± 0.023 | 0.685 ± 0.028 | 0.714 ± 0.004 | 0.485 ± 0.0061
FFFVFLGLRSVF | 0.348 ± 0.019 | 0.358 ± 0.084 | 0.357 ± 0.04 | 0.577 ± 0.11 | 0.339 ± 0.011 | 0.292 ± 0.016 | 0.434 ± 0.012 | 0.387 ± 0.049
MALAVRVVPCGA | 0.373 ± 0.012 | 0.385 ± 0.011 | 0.291 ± 0.028 | 0.4637 ± 0.0008 | 0.264 ± 0.011 | 0.287 ± 0.037 | 0.421 ± 0.0078 | 0.397 ± 0.017
SRVHHLWAILVP | 0.231 ± 0.015 | 0.265 ± 0.0052 | 0.238 ± 0.034 | 0.3712 ± 0.0019 | 0.18 ± 0.0099 | 0.228 ± 0.026 | 0.339 ± 0.0039 | 0.345 ± 0.016
FKVTWGLFYGSV | 0.551 ± 0.098 | 0.653 ± 0.048 | 0.505 ± 0.034 | 0.581 ± 0.013 | 0.535 ± 0.059 | 0.548 ± 0.026 | 0.595 ± 0.011 | 0.44 ± 0.061
YLDRFIFIYNIF | 0.603 ± 0.034 | 0.6848 ± 0.0062 | 0.599 ± 0.048 | 0.707 ± 0.031 | 0.189 ± 0.0069 | 0.202 ± 0.017 | 0.367 ± 0.023 | 0.26 ± 0.025
RFLVVVRFYWRC | 0.288 ± 0.087 | 0.424 ± 0.013 | 0.245 ± 0.028 | 0.441 ± 0.0079 | 0.168 ± 0.015 | 0.214 ± 0.035 | 0.36 ± 0.0067 | 0.439 ± 0.044
RRVFPLIIVLLF | 0.115 ± 0.023 | 0.152 ± 0.014 | 0.172 ± 0.031 | 0.279 ± 0.016 | 0.174 ± 0.0077 | 0.126 ± 0.022 | 0.221 ± 0.013 | 0.202 ± 0.0087
WGFLSVVCLSGV | 0.501 ± 0.029 | 0.5235 ± 0.0052 | 0.4 ± 0.024 | 0.533 ± 0.015 | 0.384 ± 0.035 | 0.398 ± 0.013 | 0.522 ± 0.0023 | 0.458 ± 0.038
LYSLRRNWLRTP | 0.637 ± 0.032 | 0.726 ± 0.016 | 0.672 ± 0.016 | 0.772 ± 0.0095 | 0.1676 ± 0.0011 | 0.21 ± 0.026 | 0.478 ± 0.019 | 0.323 ± 0.04
CSKGLSILLLLL | 0.636 ± 0.055 | 0.672 ± 0.028 | 0.469 ± 0.021 | 0.634 ± 0.028 | 0.301 ± 0.018 | 0.321 ± 0.034 | 0.53 ± 0.012 | 0.41 ± 0.0064
FRILVGCRVVLM | 0.429 ± 0.0069 | 0.51 ± 0.077 | 0.355 ± 0.028 | 0.5047 ± 0.00065 | 0.311 ± 0.0097 | 0.343 ± 0.051 | 0.483 ± 0.016 | 0.426 ± 0.021
TRKKENERRKNG | 0.653 ± 0.032 | 0.7213 ± 0.0044 | 0.654 ± 0.015 | 0.71 ± 0.025 | 0.245 ± 0.013 | 0.278 ± 0.04 | 0.558 ± 0.012 | 0.422 ± 0.031
WPRSFSIILLSR | 0.322 ± 0.036 | 0.3371 ± 0.002 | 0.265 ± 0.029 | 0.4355 ± 0.0031 | 0.361 ± 0.015 | 0.288 ± 0.025 | 0.419 ± 0.0043 | 0.285 ± 0.027
NYVVFVRGIKIT | 0.585 ± 0.039 | 0.609 ± 0.02 | 0.533 ± 0.026 | 0.633 ± 0.011 | 0.104 ± 0.0022 | 0.114 ± 0.016 | 0.177 ± 0.016 | 0.186 ± 0.1
YALVQHRWVYYF | 0.4 ± 0.0056 | 0.633 ± 0.061 | 0.625 ± 0.019 | 0.724 ± 0.011 | 0.0888 ± 0.011 | 0.0761 ± 0.011 | 0.0856 ± 0.0031 | 0.119 ± 0.031
FAVHHLRYILLV | 0.227 ± 0.029 | 0.325 ± 0.019 | 0.316 ± 0.024 | 0.436 ± 0.0073 | 0.0929 ± 0.009 | 0.0847 ± 0.024 | 0.129 ± 0.016 | 0.106 ± 0.016

Sequence | protein stability index (Saccharomyces cerevisiae [1]; [3]) | protein stability index (Saccharomyces cerevisiae [1]; [4]) | protein stability index (Saccharomyces cerevisiae [1]; [5]) | protein stability index (Saccharomyces cerevisiae [1]; [6]) | protein stability index (Saccharomyces cerevisiae [1]; [7]) | protein stability index (Saccharomyces cerevisiae [1]; [8]) | protein stability index (Saccharomyces cerevisiae [1]; [9]) | protein stability index (Saccharomyces cerevisiae [2])
PSPVRSSYASTL | 0.6664 ± 0.0066 | 0.704 ± 0.024 | 0.6396 ± 0.0033 | 0.7222 ± 0.0029 | 0.6532 ± 0.0047 | 0.665 ± 0.02 | 0.68992 ± 0.00058 | 0.711 ± 0.049
FVCFSFFFPFLL | 0.401 ± 0.0099 | 0.441 ± 0.0071 | 0.37 ± 0.033 | 0.5099 ± 0.001 | 0.163 ± 0.01 | 0.148 ± 0.016 | 0.238 ± 0.0042 | 0.237 ± 0.057
VAALFPPLRFLN | 0.554 ± 0.0075 | 0.711 ± 0.008 | 0.653 ± 0.017 | 0.734 ± 0.014 | 0.0912 ± 0.013 | 0.122 ± 0.036 | 0.224 ± 0.031 | 0.286 ± 0.045
WLMVGVDWRFVG | 0.436 ± 0.0056 | 0.6254 ± 0.0043 | 0.57 ± 0.024 | 0.7086 ± 0.0033 | 0.0725 ± 0.015 | 0.08 ± 0.012 | 0.0927 ± 0.0084 | 0.138 ± 0.046
FRHFPLLLSFVR | 0.428 ± 0.025 | 0.4636 ± 0.0011 | 0.334 ± 0.033 | 0.512 ± 0.01 | 0.324 ± 0.015 | 0.323 ± 0.04 | 0.5 ± 0.0094 | 0.418 ± 0.062
FSPSHMLRIFCY | 0.337 ± 0.089 | 0.355 ± 0.067 | 0.286 ± 0.033 | 0.443 ± 0.0051 | 0.1793 ± 0.00023 | 0.212 ± 0.0047 | 0.282 ± 0.0028 | 0.294 ± 0.055
ACACFWVVWVGW | 0.262 ± 0.027 | 0.374 ± 0.021 | 0.248 ± 0.024 | 0.4309 ± 0.0018 | 0.217 ± 0.021 | 0.238 ± 0.035 | 0.402 ± 0.0083 | 0.378 ± 0.03
RPHPLHIPRRLA | 0.624 ± 0.054 | 0.6848 ± 0.0035 | 0.684 ± 0.01 | 0.692 ± 0.047 | 0.146 ± 0.011 | 0.216 ± 0.072 | 0.391 ± 0.037 | 0.238 ± 0.028
FICLLFSCVYLG | 0.51 ± 0.025 | 0.535 ± 0.013 | 0.464 ± 0.026 | 0.593 ± 0.039 | 0.3776 ± 0.0014 | 0.382 ± 0.026 | 0.5293 ± 0.005 | 0.41 ± 0.072
TYNVMFSPWRKA | 0.604 ± 0.07 | 0.7064 ± 0.005 | 0.667 ± 0.032 | 0.774 ± 0.0098 | 0.106 ± 0.007 | 0.148 ± 0.034 | 0.3808 ± 0.0022 | 0.206 ± 0.011
FFVFLVLFCLWV | 0.278 ± 0.027 | 0.259 ± 0.065 | 0.302 ± 0.035 | 0.397 ± 0.008 | 0.321 ± 0.022 | 0.261 ± 0.031 | 0.356 ± 0.0055 | 0.391 ± 0.076
HIVYCSSEQIKC | 0.53 ± 0.048 | 0.6419 ± 0.0016 | 0.446 ± 0.026 | 0.589 ± 0.0063 | 0.482 ± 0.028 | 0.483 ± 0.029 | 0.56 ± 0.032 | 0.497 ± 0.0059
FCCSVFCFLCLY | 0.562 ± 0.044 | 0.548 ± 0.02 | 0.505 ± 0.027 | 0.572 ± 0.0057 | 0.5442 ± 0.001 | 0.492 ± 0.0071 | 0.518 ± 0.019 | 0.504 ± 0.049
FCHFSSLVSVSL | 0.614 ± 0.011 | 0.6089 ± 0.0042 | 0.498 ± 0.024 | 0.6377 ± 0.0016 | 0.494 ± 0.021 | 0.496 ± 0.018 | 0.611 ± 0.025 | 0.577 ± 0.18
LFLPFLPTLALL | 0.795 ± 0.029 | 0.823 ± 0.013 | 0.686 ± 0.032 | 0.7901 ± 0.0056 | 0.598 ± 0.021 | 0.623 ± 0.022 | 0.7359 ± 0.0023 | 0.231 ± 0.012
KTSVLLCVSTSF | 0.633 ± 0.0073 | 0.645 ± 0.021 | 0.427 ± 0.018 | 0.628 ± 0.015 | 0.442 ± 0.046 | 0.443 ± 0.016 | 0.628 ± 0.015 | 0.441 ± 0.019
FALVSLSFALVE | 0.4203 ± 0.00048 | 0.457 ± 0.019 | 0.306 ± 0.025 | 0.518 ± 0.0066 | 0.28 ± 0.0036 | 0.292 ± 0.036 | 0.472 ± 0.02 | 0.379 ± 0.034
DCRFIIFYCVMV | 0.48 ± 0.022 | 0.5 ± 0.019 | 0.434 ± 0.053 | 0.509 ± 0.019 | 0.454 ± 0.06 | 0.454 ± 0.037 | 0.506 ± 0.019 | 0.457 ± 0.029
DAIVLGSVVVCR | 0.515 ± 0.032 | 0.563 ± 0.017 | 0.393 ± 0.029 | 0.5719 ± 0.0051 | 0.342 ± 0.0065 | 0.39 ± 0.038 | 0.55 ± 0.013 | 0.414 ± 0.026
